These results are taken from doi:10.1101/2025.11.26.690650 (bioRxiv, 2025).

T1: TCV P38 (capsid protein, VSR) wild type (Turnip crinkle virus (pTCV cDNA), UniProt P06663 1-351)
T1 sequence: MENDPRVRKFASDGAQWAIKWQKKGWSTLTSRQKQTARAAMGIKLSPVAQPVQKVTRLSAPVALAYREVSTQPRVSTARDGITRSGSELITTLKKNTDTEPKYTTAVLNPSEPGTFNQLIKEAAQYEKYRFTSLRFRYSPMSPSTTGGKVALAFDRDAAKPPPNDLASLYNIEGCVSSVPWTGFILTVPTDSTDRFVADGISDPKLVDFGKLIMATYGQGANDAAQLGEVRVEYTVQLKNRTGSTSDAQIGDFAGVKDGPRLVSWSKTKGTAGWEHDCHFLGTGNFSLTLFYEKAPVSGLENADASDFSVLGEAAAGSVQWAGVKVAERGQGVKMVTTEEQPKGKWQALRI

B1: siR gf698_22 (dsRNA)
RNA 1: UAGUUCAUCCAUGCCAUGUGUA
RNA 2: CACAUGGCAUGGAUGAACUAUA
modifications: 5'-phosphate
B2: siR gf698_24 (dsRNA)
RNA 1: UAGUUCAUCCAUGCCAUGUGUAAU
RNA 2: UACACAUGGCAUGGAUGAACUAUA
modifications: 5'-phosphate
B3: siR gf698_21 (dsRNA)
RNA 1: UAGUUCAUCCAUGCCAUGUGU
RNA 2: ACAUGGCAUGGAUGAACUAUA
modifications: 5'-phosphate
B4: NbmiR403b (dsRNA)
RNA 1: UUAGAUUCACGCACAAACUCG
RNA 2: UGUUUGUGCGUGAUUCUGACA
modifications: 5'-phosphate
B5: AtmiR403a (dsRNA)
RNA 1: UUAGAUUCACGCACAAACUCG
RNA 2: UGUUUUGUGCUUGAAUCUAAUU
modifications: 5'-phosphate
B6: AtmiR168 (dsRNA)
RNA 1: UCGCUUGGUGCAGGUCGGGAA
RNA 2: CCCGCCUUGCAUCAACUGAAU
modifications: 5'-phosphate
B7: NbmiR403a (dsRNA)
RNA 1: UUAGAUUCACGCACAAACUCG
RNA 2: UGUUUGUGCGUGAAUCUGACA
modifications: 5'-phosphate
B8: AtmiR162 (dsRNA)
RNA 1: UCGAUAAACCUCUGCAUCCAG
RNA 2: GGAGGCAGCGGUUCAUCGAUC
modifications: 5'-phosphate
B9: dsRNA_33 (dsRNA)
RNA 1: CUAAGAUGCUCGCUGCCAAUGAACGACCCUCCCUAA
RNA 2: UUAGGGAGGGUCGUUCAUUGGCAGCGAGCAUCU
modifications: 5'-phosphate
B10: Turnip crinkle virus P38 protein (TCV P38), wildtype (natural protein, UniProt P06663 1-351, looked up)
chain: T1 sequence

For the first data set, the target named is TCV P38_W274A (Turnip crinkle virus) (UniProt P06663). Put plainly: native MS.
In turn, “TCV P38_W274A (from UniProt P06663 1-351) (natural protein)” displayed a stoichiometry N of 2.

The target in another data set is T1, TCV P38 (capsid protein, VSR) wild type. Nature of the data set: EMSA. (In general: In EMSA bound probe runs differently from free probe, usually more slowly.)
The molecule B1 came in with a Kd of 0.53 ± 0.07 nM.
Molecule B2 showed a dissociation constant Kd of 0.44 ± 0.09 nM.
On the same count and under the same terms, with B3 the figure was 0.56 ± 0.09 nM.
Same read-out and setting: with B4 the figure was 1.27 ± 0.1 nM; with B5, 0.87 ± 0.13 nM; with B6, 0.55 ± 0.05 nM.
Regarding B7, binding was characterised by a dissociation constant (Kd) of 0.36 ± 0.05 nM. This Kd lies about 1.5-fold lower than the previous one.
B8 returned a dissociation constant Kd of 0.3 ± 0.03 nM.

The target is the same in the next data set. Put plainly: EMSA. The source holds these as a separate data set.
With B9, the dissociation constant Kd was 0.77 ± 0.05 nM.

For another data set the target is unchanged. Nature of the data set: EMSA. This is another data set of the same source.
Consider UAGUUCAUCCAUGCCAUGUGU (ssRNA, 5'-phosphate) [ss gf698_21], for which the binding result was “no binding”.
Consider UAGUUCAUCCAUGCCAUGUGUAAU (ssRNA, 5'-phosphate) [ss gf698_24], for which the binding result is recorded as “no binding”.

Another data set concerns the molecule itself. Nature of the data set: AUC.
In the case of B10, the “stoichiometry N” value stood at 2.

The target of the next data set is T1, TCV P38 (capsid protein, VSR) wild type. Put plainly: competition.
B9 registered a Ki of 0.14 ± 0.03 nM.
As to B1, the inhibition constant (Ki) was 0.18 ± 0.05 nM.
The same measure, in the same setting: the result for B2 reads 0.4 ± 0.1 nM.

Another data set has the same target. Put plainly: competition. The source holds these as a separate data set.
Take B9: the Ki worked out at 0.07 ± 0.03 nM.
With B1, the inhibition constant Ki is 0.57 ± 0.06 nM.
The same measure, in the same setting: with B2 the figure was 0.33 ± 0.03 nM; with B3, 0.7 ± 0.07 nM.
The same measure, in the same setting: the result for B6 reads 0.95 ± 0.3 nM; that for B8, 0.5 ± 0.15 nM.

For a further data set the target is unchanged. Put plainly: competition. This is another data set of the same source.
B9 showed an inhibitory constant (Ki) of 0.06 ± 0.01 nM.
The same measure, in the same setting: with B1 the figure was 0.35 ± 0.1 nM.
The molecule B2 displayed an inhibitory constant (Ki) of 0.33 ± 0.08 nM.
On to B6, for which the inhibitory constant (Ki) is 0.7 ± 0.2 nM.
In turn, B8 gave an inhibitory constant (Ki) of 0.33 ± 0.17 nM.

Another data set concerns the molecule itself. Put plainly: crystal structure.
In the case of B10, the “stoichiometry N” value was determined as 60.

By stoichiometry N is commonly meant the number of molecules, sites or subunits per partner or assembly. One may read the Kd as the equilibrium constant for the complex coming apart. The term Ki denotes a measure of affinity in units of concentration, obtained from inhibition or displacement. A lower Ki goes with tighter binding.
